The values that follow are results of earlier work, collected in article PMC10317158.

The target in data set [1] is Mpp6 NIM (Saccharomyces cerevisiae) (UniProt P53725).
In data set [2] the target is RNA polymerase II CTD pSer2/5 peptide CTD (Saccharomyces cerevisiae) (UniProt P04050).
Data set [3] addresses Sen1 NIM2 (Saccharomyces cerevisiae) (UniProt Q00416).
The target in data set [4] is RNA polymerase II CTD pSer2 peptide CTD (Saccharomyces cerevisiae) (UniProt P04050).
Data set [5] concerns the target RNA polymerase II CTD pSer2/7 peptide CTD (Saccharomyces cerevisiae) (UniProt P04050).
The target in data set [6] is RNA polymerase II CTD pThr4 peptide CTD (Saccharomyces cerevisiae) (UniProt P04050).

Take Nrd1 CID (from UniProt P53617): the results for the Kd in data set [1], in data set [2] and in data set [3] were 13.6 µM, 16 µM and 1.75 µM, respectively.
With Pcf11 CID (from UniProt P39081), the Kd in data set [4] is 115 µM.
As for Rtt103 CID (from UniProt Q05543), the Kd was 1.6 µM in data set [5] and 6 µM in data set [6].
